B1: CPEB3 Ribozyme (parent)
chain: GGGGGCCACAGCAGAAGCGUUCACGUCGCGGCCCCUGUCAGAUUCUGGUGAAUCUGCGAAUUCUGCUGU

Variants of: B1
Assay: self-cleavage, relative activity (ratio to wild type); higher = more cleavage; co-transcriptional
GGGGGCCAGAGCAGAAGCGUUCACGUCGCGGCCCCUGUCAGAUUCUGGUGAAUAUGCGAAUUCUGCUGU gave a self-cleavage of 0.931.
In the case of GGGGGCCAGAGCAGAAGCGUUCACGUCGCGGCCCCUGUCAGAUUCUGGUGAAUUUGCGAAUUCUGCUGU, the self-cleavage is reported as 1.05.
GGGGGCCAGAGCAGAAGCGUUCACGUCGCGGCCCCUGUCAGAUUCUGGUGUAUCUGCGAAUUCUGCUGU gave a self-cleavage of 0.976.
For GGGGGCCAGAGCAGAAGCGUUCACGUCGCGGCCCCUGUCAGAUUCUGGUGGAUCUGCGAAUUCUGCUGU, the self-cleavage was 0.993.
GGGGGCCAGAGCAGAAGCGUUCACGUCGCGGCCCCUGUCAGAUUCUGGUGAGUCUGCGAAUUCUGCUGU gave a self-cleavage of 1.05.
In the case of GGGGGCCAGAGCAGAAGCGUUUACGUCGCGGCCCCUGUCAGAUUCUGGUGAAUCUGCGAAUUCUGCUGU, the self-cleavage is reported as 0.445.
With GGGGGCCAGAGCAGAAGCGUUGACGUCGCGGCCCCUGUCAGAUUCUGGUGAAUCUGCGAAUUCUGCUGU the self-cleavage was 0.257.
With GGGGGCCAGAGCAGAAGCGUUCAUGUCGCGGCCCCUGUCAGAUUCUGGUGAAUCUGCGAAUUCUGCUGU the self-cleavage was 0.9.
For GGGGGCCAGAGCAGAAGCGUUCAAGUCGCGGCCCCUGUCAGAUUCUGGUGAAUCUGCGAAUUCUGCUGU, the self-cleavage was 0.872.
Variant GGGGGCCAGAGCAGAAGCGUUCACGUCGCGGCCCCUGUCAGUUUCUGGUGAAUCUGCGAAUUCUGCUGU has a self-cleavage of 1.01.
Variant GGGGGCCAGAGCAGAAGCGUUCACGUCGCGGCCCCUGUCAGGUUCUGGUGAAUCUGCGAAUUCUGCUGU has a self-cleavage of 0.949.
In the case of GGGGGCCAGAGCAGAAGCGUUCACGUCGCGGCCCCUGUCAGCUUCUGGUGAAUCUGCGAAUUCUGCUGU, the self-cleavage is reported as 1.03.
In the case of GGGGGCCAGAGGAGAAGCGUUCACGUCGCGGCCCCUGUCAGAUUCUGGUGAAUCUGCGAAUUCUGCUGU, the self-cleavage is reported as 0.878.
GGGGGCCAGAGAAGAAGCGUUCACGUCGCGGCCCCUGUCAGAUUCUGGUGAAUCUGCGAAUUCUGCUGU showed a self-cleavage of 0.789.
GGGGGCCAGAGUAGAAGCGUUCACGUCGCGGCCCCUGUCAGAUUCUGGUGAAUCUGCGAAUUCUGCUGU showed a self-cleavage of 1.
GGGGGCCAGAGCAGAAGCGUUCACGUCGCGGCCCCUGUCAGAUUCUGGUGAAUCUGAGAAUUCUGCUGU gave a self-cleavage of 0.402.
Variant GGGGGCCAGAGCAGAAGCGUUCACGUCGCGGCCCCUGUCAGAUUCUGGUGAAUCUGGGAAUUCUGCUGU has a self-cleavage of 0.334.
In the case of GGGGGCCAGAGCAGAAGCGUUCACGUCGCGGCCCCUGUGAGAUUCUGGUGAAUCUGCGAAUUCUGCUGU, the self-cleavage is reported as 0.981.
Variant GGGGGCCAGAGCAGAAGCGUUCACGUCGCGGCCCCUGUAAGAUUCUGGUGAAUCUGCGAAUUCUGCUGU has a self-cleavage of 0.912.
Variant GGGGGCCAGAGCAGAAGCGUUCACGUCGCGGCCCCUGUUAGAUUCUGGUGAAUCUGCGAAUUCUGCUGU has a self-cleavage of 0.878.
GGGGGCCAGAGCAGAAGCGUUCACGUCGCGGCCCCUGUCAGAUUCUGGUGAAUCUGCGAAUUCUGGUGU showed a self-cleavage of 0.905.
For GGGGGCCAGAGCAGAAGCGUUCACGUCGCGGCCCCUGUCAGAUUCUGGUGAAUCUGCGAAUUCUGUUGU, the self-cleavage was 0.967.
With GGGGGCCAGAACAGAAGCGUUCACGUCGCGGCCCCUGUCAGAUUCUGGUGAAUCUGCGAAUUCUGCUGU the self-cleavage was 0.882.
In the case of GGGGGCCAAAGCAGAAGCGUUCACGUCGCGGCCCCUGUCAGAUUCUGGUGAAUCUGCGAAUUCCGCUGU, the self-cleavage is reported as 0.938.
For GGGGGCCAAAGCAGAAGCGUUCACGUCGCGGCCCCUGUCAGAUUCUGGUGAAUCUGCGAAUUCGGCUGU, the self-cleavage was 0.951.
Work on GGGGGCCAGAGCACAAGCGUUCACGUCGCGGCCCCUGUCAGAUUCUGGUGAAUCUGCGAAUUCUGCUGU yielded a self-cleavage of 0.565.
For GGGGGCCAGAGCAUAAGCGUUCACGUCGCGGCCCCUGUCAGAUUCUGGUGAAUCUGCGAAUUCUGCUGU, the self-cleavage was 0.756.
Variant GGGGGCCAGAGCAGAAGCGUUCACGUCGCGGCCCCUGUCAGAUUCUGAUGAAUCUGCGAAUUCUGCUGU has a self-cleavage of 1.01.
GGGGGCCAGAGCAGAAGCGUUCACGUCGCGGCCCCUGUCAGAUUCUGCUGAAUCUGCGAAUUCUGCUGU showed a self-cleavage of 0.99.
GGGGGCCAGAGCAGAAGCGUUCACGUCGCGGCCCCUGUCACAUUCUGGUGAAUCUGCGAAUUCUGCUGU gave a self-cleavage of 0.964.
GGGGGCCAGAGCAGAAGCGUUCACGUCGCGGCCCCUGUCAUAUUCUGGUGAAUCUGCGAAUUCUGCUGU gave a self-cleavage of 0.888.
In the case of GGGGGCCAGAGCAGAAGCGUUCACGUCGCGGCCCCUGUCAGAUUCUGGUGAAUCUGCGAAUUAUGCUGU, the self-cleavage is reported as 0.909.
For GGGGGCCAGAGCAGAAGCGUUCACGUCGCGGCCCCUGUCAGAUUCUGGUGAAUCUGCGAAUUUUGCUGU, the self-cleavage was 0.973.
GGGGGCCAGAGCAGAAGCGUUCACGUUGCGGCCCCUGUCAGAUUCUGGUGAAUCUGCGAAUUCUGCUGU showed a self-cleavage of 0.888.
For GGGGGCCAGAGCAGAAGCAUUCACGUCGCGGCCCCUGUCAGAUUCUGGUGAAUCUGCGAAUUCUGCUGU, the self-cleavage was 0.106.
GGGGGCCAGAGCAGAAGCGUUCACGUCGCGGCCCCUGUCAGAUUGUGGUGAAUCUGCGAAUUCUGCUGU gave a self-cleavage of 0.996.
Variant GGGGGCCAGAGCAGAAGCGUUCACGUCGCGGUCCCUGUCAGAUUCUGGUGAAUCUGCGAAUUCUGCUGU has a self-cleavage of 0.992.
GGGGGCCAGAGCAGAAGCGUUCACGUCGCGGACCCUGUCAGAUUCUGGUGAAUCUGCGAAUUCUGCUGU gave a self-cleavage of 0.983.
Work on GGGGGCCAGAGCAGAAGCGUUCACGUCGCGGGCCCUGUCAGAUUCUGGUGAAUCUGCGAAUUCUGCUGU yielded a self-cleavage of 0.665.
With GGGGGCCAGAGCAGCAGCGUUCACGUCGCGGCCCCUGUCAGAUUCUGGUGAAUCUGCGAAUUCUGCUGU the self-cleavage was 0.819.
GGGGGCCAGUGCAGAAGCGUUCACGUCGCGGCCCCUGUCAGAUUCUGGUGAAUCUGCGAAUUCUGCUGU showed a self-cleavage of 0.987.
Variant GGGGGCCAGCGCAGAAGCGUUCACGUCGCGGCCCCUGUCAGAUUCUGGUGAAUCUGCGAAUUCUGCUGU has a self-cleavage of 0.634.
For GGGGGCCAGGGCAGAAGCGUUCACGUCGCGGCCCCUGUCAGAUUCUGGUGAAUCUGCGAAUUCUGCUGU, the self-cleavage was 1.
Variant GGGGGCCAGAGCAGAAGCGUUCACGUCUCGGCCCCUGUCAGAUUCUGGUGAAUCUGCGAAUUCUGCUGU has a self-cleavage of 0.104.
Work on GGGGGCCAAAGCAGAAGCGUUCACGUCGCGGCCCCUGUCAGAUUCUGGUGAAUCUGCGAAUUCUGCCGU yielded a self-cleavage of 1.
GGGGGCCAAAGCAGAAGCGUUCACGUCGCGGCCCCUGUCAGAUUCUGGUGAAUCUGCGAAUUCUGCGGU gave a self-cleavage of 1.05.
GGGGGCCAGAGCAGAAGCGUUCACGUCGCGGCCCUUGUCAGAUUCUGGUGAAUCUGCGAAUUCUGCUGU gave a self-cleavage of 0.964.
GGGGGCCAGAGCAGAAGCGUUCACGUCGCGGCCCGUGUCAGAUUCUGGUGAAUCUGCGAAUUCUGCUGU showed a self-cleavage of 0.758.
With GGGGGCCAGAGCAGAAGGGUUCACGUCGCGGCCCCUGUCAGAUUCUGGUGAAUCUGCGAAUUCUGCUGU the self-cleavage was 0.2.
With GGGGGCCAGAGCAGAAGAGUUCACGUCGCGGCCCCUGUCAGAUUCUGGUGAAUCUGCGAAUUCUGCUGU the self-cleavage was 0.256.
With GGGGGCCAGAGCAGAAGCGUUCACGUCGCGGCCCCUGUCAGAUUCUGGUGAAUCUGCGGAUUCUGCUGU the self-cleavage was 0.997.
With GGGGGCCAGAGCAGAAGCGUUCACGUCGCGGCCCCUGUCAGAUUCUGGUGAAUCUGCGUAUUCUGCUGU the self-cleavage was 0.936.
For GGGGGCCAGAGCAGAAGCGUUCACGUCGAGGCCCCUGUCAGAUUCUGGUGAAUCUGCGAAUUCUGCUGU, the self-cleavage was 0.84.
In the case of GGGGGCCAGAGCAGAAGCGUUCACGUCGUGGCCCCUGUCAGAUUCUGGUGAAUCUGCGAAUUCUGCUGU, the self-cleavage is reported as 0.897.
In the case of GGGGGCCAGAGCAGAAGCGUUCACGUCGGGGCCCCUGUCAGAUUCUGGUGAAUCUGCGAAUUCUGCUGU, the self-cleavage is reported as 0.695.
GGGGGCCAGAGCAGAAGCGUUCACGUCGCGGCCCCUGUCAGAUUCUGGUCAAUCUGCGAAUUCUGCUGU showed a self-cleavage of 1.01.
In the case of GGGGGCCAGAGCAGAAGCGUUCACGUCGCGGCCCCUGUCAGAUUCUCGUGAAUCUGCGAAUUCUGCUGU, the self-cleavage is reported as 1.01.
GGGGGCCAGAGCAGAAGCGUUCACGUCGCGGCCCCUGUCAGAUUCUGGUGAAUCUGCGACUUCUGCUGU gave a self-cleavage of 0.385.
With GGGGGCCAGAGCAGAAGCGUUCACGUCGCGGCCCCUGUCAGAUUCUGGUGAAUCUGCGAUUUCUGCUGU the self-cleavage was 0.486.
In the case of GGGGGCCAGAGCAGAAGCGUUCACGUCGCGGCCCCUUUCAGAUUCUGGUGAAUCUGCGAAUUCUGCUGU, the self-cleavage is reported as 0.323.
GGGGGCCAAAGCAGAAGCGUUCACGUCGCGGCCCCUGUCAGAUUCUGGUGAAUCUGCGAAUUCUGCUGG gave a self-cleavage of 1.07.
In the case of GGGGGCCAAAGCAGAAGCGUUCACGUCGCGGCCCCUGUCAGAUUCUGGUGAAUCUGCGAAUUCUGCUGC, the self-cleavage is reported as 1.08.
Work on GGGGGCCAGAGCAGAAGCGUUCACGUCGCGGCCGCUGUCAGAUUCUGGUGAAUCUGCGAAUUCUGCUGU yielded a self-cleavage of 0.994.
GGGGGCCAGAGCAGAAGCGUUCACGUCGCGGCGCCUGUCAGAUUCUGGUGAAUCUGCGAAUUCUGCUGU showed a self-cleavage of 0.925.
Variant GGGGGCCAGAGCAGAAGCGUUCACGUCGCGGCUCCUGUCAGAUUCUGGUGAAUCUGCGAAUUCUGCUGU has a self-cleavage of 1.04.
With GGGGGCCAGAGCAGAAGCGUUCACGUCGCGUCCCCUGUCAGAUUCUGGUGAAUCUGCGAAUUCUGCUGU the self-cleavage was 0.97.
Variant GGGGGCCAGAGCAGAAGCGUUCACGUCGCGCCCCCUGUCAGAUUCUGGUGAAUCUGCGAAUUCUGCUGU has a self-cleavage of 0.363.
With GGGGGCCAGAGCAGAACCGUUCACGUCGCGGCCCCUGUCAGAUUCUGGUGAAUCUGCGAAUUCUGCUGU the self-cleavage was 0.176.
Work on GGGGGCCAGAGCCGAAGCGUUCACGUCGCGGCCCCUGUCAGAUUCUGGUGAAUCUGCGAAUUCUGCUGU yielded a self-cleavage of 0.845.
Work on GGGGGCCAGAGCGGAAGCGUUCACGUCGCGGCCCCUGUCAGAUUCUGGUGAAUCUGCGAAUUCUGCUGU yielded a self-cleavage of 0.922.
For GGGGGCCAGAGCAGAAGCGUUCGCGUCGCGGCCCCUGUCAGAUUCUGGUGAAUCUGCGAAUUCUGCUGU, the self-cleavage was 0.976.
GGGGGCCAGAGCAGAAGCGUUCUCGUCGCGGCCCCUGUCAGAUUCUGGUGAAUCUGCGAAUUCUGCUGU showed a self-cleavage of 0.978.
For GGGGGCCAGAGCAGAUGCGUUCACGUCGCGGCCCCUGUCAGAUUCUGGUGAAUCUGCGAAUUCUGCUGU, the self-cleavage was 0.887.
GGGGGCCAGAGCAGAGGCGUUCACGUCGCGGCCCCUGUCAGAUUCUGGUGAAUCUGCGAAUUCUGCUGU showed a self-cleavage of 0.957.
GGGGGCCAGAGCAGAAGCGUUCACUUCGCGGCCCCUGUCAGAUUCUGGUGAAUCUGCGAAUUCUGCUGU showed a self-cleavage of 0.207.
With GGGGGCCAGAGCAGAAGCGUUCACAUCGCGGCCCCUGUCAGAUUCUGGUGAAUCUGCGAAUUCUGCUGU the self-cleavage was 0.216.
Work on GGGGGCCAGAGCAGAAGCGUUCACCUCGCGGCCCCUGUCAGAUUCUGGUGAAUCUGCGAAUUCUGCUGU yielded a self-cleavage of 0.108.
With GGGGGCCAGAGCAGAAGCGUUCACGUCGCGGCCCCUGUCGGAUUCUGGUGAAUCUGCGAAUUCUGCUGU the self-cleavage was 0.968.

From the RNAGym collection of RNA variant scans (doi:10.7554/elife.80360)
